Target: HTT^1-3144 Q23, C-terminally FLAG-tagged (human)
Assay: SEC-MALS

stoichiometry N: 2
Substance: HTT^1-3144 Q23, C-terminally FLAG-tagged (natural protein)
